# Values of other authors, collected in PMC8961861.
# Biological target: Drebrin 1-300 (Homo sapiens) (UniProt Q16643)
# Test: NMR
# Chain of UniProt Q16643 (Q16643 1-300): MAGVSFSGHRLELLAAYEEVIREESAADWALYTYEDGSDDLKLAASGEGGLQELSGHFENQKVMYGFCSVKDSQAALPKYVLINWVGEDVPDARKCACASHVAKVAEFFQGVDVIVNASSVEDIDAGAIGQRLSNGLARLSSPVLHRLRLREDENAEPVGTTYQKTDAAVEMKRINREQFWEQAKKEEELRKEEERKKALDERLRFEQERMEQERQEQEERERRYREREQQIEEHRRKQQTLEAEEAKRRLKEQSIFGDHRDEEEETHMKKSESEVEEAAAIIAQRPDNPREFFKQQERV
substance,measurement,value
Cx43CT 236-382 (from UniProt P08050),Kd,300 µM
